# B1: full-length Caenorhabditis elegans TDP2 (enzyme, UniProt Q9XWG3 1-362, looked up)
# chain: MSNSDDEIQEIEAKRQKMSQEDSEVEIEILDEPEQGKLKNSSMSDEQKLHEFAIITATDEAFAQSILQDVDWDLKKALDVFYGSEAFAEARSAAVMGASSSMASSGAAVMTAEDLKGFEVSVMSWNIDGLDGRSLLTRMKAVAHIVKNVNPDILFLQEVVDRDLAPIDKLQSLYKIYYSNKGCQYYTAILVSKMFDVEKHDVIHFQNSGMYRTLQILEGSIGGLKVFLLNTHLESTREHRPQRCAQFGFCMDKVREIIAQNPGALVFFGGDLNLRDEEVSRVPDGVKDAWEAAGSDNKTKFTWDTFKNDNKQGFHGAKMRFDRLYWSGPLDKVKFTLEGRQRIRSCLCFPSDHWAINATFFA
# Molecular target: the molecule itself
# Assay: SAXS
protein,measurement,value
B1,stoichiometry N,2
